From the nanobody polyreactivity screen of Harvey et al. (2022)

Experiment: yeast display, Sf9 membrane polyspecificity reagent, FACS + sequencing; frameworks hold sequencing errors
Outline: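 In a synthetic yeast display library (Saccharomyces cerevisiae BJ5465), nanobody expression was induced with galactose for 36–48 hours. FACS gates were set low and high (top ~1%) using anti-HA fluorescence for expression and streptavidin fluorescence for binding of the Sf9 membrane reagent. Each polyreactivity label is drawn from the gate of origin.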

QVQLVESGGGLVQAGGSRRLSCAASGIIFAYYAMGWYRQAPGKERELVASISSTGGSTYYADSVKGRFTISRDNAKNTVYLQMNSLKPEDTAVYYCAVDGLPPKDALHLYYYWGQVTQVTVSS
polyreactivity (PSR sort gate): low polyreactivity

QVQLVESGGGLVQAGGSRRLSCAASGLIFDKAMGWYRQAPGKQREFVAAITYSTGSTYYADSVKGRFTISRDNAKNTVYLQMNSLKPEDTAVYYCAKDGSGHGTERDYWGQGTQVTVSS
polyreactivity (PSR sort gate): low polyreactivity

QVQLVESGGGLVQAGGSRRLSCAASGRIICVYAMGWYRQAPGNERDLVAAITIGGSTYYADSVKGRFTISRDNAMNTFYLQMNSLKPEDTAVYYCNRRYNWYLHHYDYWGQGTQVTVSS
polyreactivity (PSR sort gate): high polyreactivity

QVQLVESGGGLVQAGGSRRLSCAASGRSFYGNAMGWYRQAPGTERECVAGISWRGGRTYYADSVKGRFTISRDNANNTVYLQMNSLKPEETAVYYCAASAGYRGRSGYEYWGQGTQVTVSS
polyreactivity (PSR sort gate): high polyreactivity

QVQLVESGGGLVQAGGSRRLSCAASGRTFYYAMGWYRQAPGKETQLVATITSGGGSTYYADSVKGRFSISRDNAKNTVYLQMNSLKPEDTAVYYCAADYKSSPPLPEYDYWGQGTQVTVSS
polyreactivity (PSR sort gate): high polyreactivity

QVQLVESGGGLVQAGGSRRLSCAASGSNFRNNAIGWYRQAPGKERELVAVISRRSGNTYYADSVKGRFTISRDNGKKTVYLPMHSLKPEDTAVYYCASDYCKSSIRGDYWGQGTQVTVSS
polyreactivity (PSR sort gate): low polyreactivity

QVQLVESGGGLVQAGGSRRLSCAASGSTFRINAMGWYRQAPGKERELVADINSGGNTTYADSVKGRFTISRDNAKNTVYLQMNSLKPEDTAVYYCAADPVFDLWEFLLDYGYDYWGQGTQVTVSS
polyreactivity (PSR sort gate): low polyreactivity

QVQLVESGGGLVQAGGSRRLSCAASGSTFYGYAMGWYRQAPGKEREFVAAITTSGGSTYYADSVKGRFTISRDNAKNTVYLQMNSLKPEDTAVYYCARDLYTEYRWGRLTYDYWGQGTQVTVSS
polyreactivity (PSR sort gate): low polyreactivity

QVQLVESGGGLVQAGGSRRLSWAASGSTFPRNAMGWYRQAPGKERELVAAISSGGSTYYADSVKWRFTISRDNAKNTVYLQMNSLKPEDTAVYYCAARLYWPIIVVDLYGYDYWGEGTQVTVSS
polyreactivity (PSR sort gate): low polyreactivity

QVQLVESGGGLVQAGGSRRLTCAASGFTFEYYAMGWYRQAPGTERELVAAISYSGSSTYYADSVKGRFTISRDNAKNTVYLQMNSLKPEDTAVYYCAARAVSRRFDYWGQGTQVTVSS
polyreactivity (PSR sort gate): high polyreactivity

QVQLVESGGGLVQAGGSRSLSCAASGRIFTVYAMGWYRQAPGKERELVAAISGRGGRTTYADSVKGRFTISRDNAKNTVFLQMNSLKPEDTAVYYCAAAYLRYVSTQYHYDYWGEGTQVTVSS
polyreactivity (PSR sort gate): low polyreactivity

QVQLVESGGGLVQAGGSVRLICAASGSIFYTYAMGWYRQAPGKERELVAAISKRGGSTYDADSVKGRFTISRDNAKNTVYLQMNSLKPEDTAVYYCAADTQHVYGSNFYYWGQGTQVTVSS
polyreactivity (PSR sort gate): high polyreactivity

QVQLVESGGGLVQAGGSVRLSCAASGFIFWYSAMGWYRQAPGKERELVAAISGTGGTTYYADSVKGRFTISRDNAKNTVYLQMNSLKPEDTAVYYCNFRYDSRRTAIGYAYWGQGTQETVSS
polyreactivity (PSR sort gate): low polyreactivity

QVQLVESGGGLVQAGGSVRLSCAASGRIFRHNTRGWYRQAPGKERELVAAITFSDGNTYYADSVKGRFTISRDNAKNTVYLQMNSLKPEDTAVYYCNAGYSYGVSYAEGGYWGQGTQVTVSS
polyreactivity (PSR sort gate): low polyreactivity

QVQLVESGGGLVQAGGSVRLSCAASGRTFYYNAMGWYRQAPGKERELVAAISWSGGSTYYADSVKGRFTISRDNAKNTVYLQMNSLKPEDTAVYYCAARSRYYHFDYWGQGTQVTVSS
polyreactivity (PSR sort gate): high polyreactivity

QVQLVESGGGLVQAGGSVRLSCAASGSIFTGYAMGWYRQAPGKERELVAAISRSSGSTYYADSVKGRFTISRDNAKNTVYLQMNSLKPEDTAVYYCNAYSKYRSGRLYWMGYWGQGTQVTVSS
polyreactivity (PSR sort gate): high polyreactivity

QVQLVESGGGLVQAGGTLLLTCAASGFIFDIYAMGWSRPAPGKERELVAAITWNSGSTHYADSVKGRFTISRDTAKNTVYLQMNRLKPEDTAVYYCAADEVTYAYYPYDYWGQGTQVTVSS
polyreactivity (PSR sort gate): low polyreactivity

QVQLVESGGGLVQAGGTLRISCAASGITINYNAMGWYRQAPGKEMELVAAITRSGGSTNYADSVKGRFTISRDNAKNTVYLQMNSLKPEDTAVYYCAKGHLYAGHRHYAYGYWGQGTQVTVSS
polyreactivity (PSR sort gate): low polyreactivity

QVQLVESGGGLVQAGGTLRISCAASGSIFWYYAMGSYRQAPGKERELVAAISKSGGSTYYADSVKVRFTISRDNAKNTVYLQMNSLKQEDTAVYYCAKYGPVIDGVDYWGQGTQVTVSS
polyreactivity (PSR sort gate): low polyreactivity

QVQLVESGGGLVQAGGTLRLICAASGSTLYWNAMGLYRQAPGKQRELVAGISIGGRTNYADSVKGRFTISRDNAKNTVYLQMISLKPEDTAVYYCNAENTYLGSRYRPYNYWGQGTQVTVSS
polyreactivity (PSR sort gate): low polyreactivity

QVQLVESGGGLVQAGGTLRLICAATGRTFDFNAMGWYRQAPGKERELVAAITESGGSTYYADSVKGRFTISRDNAKNTVYLQMNSLKPEDTAVYYCAVAGNYYRDYPEVSYFSIYNYWGQGTQVTVSS
polyreactivity (PSR sort gate): low polyreactivity

QVQLVESGGGLVQAGGTLRLSCAASGFIFDWNTKGWYRQAPGKERELVAAITESSGSTYYADSVKGRFTISRDNAKNTVYLQMNSLKPEDTAVYYCAAELDVYVSIGSRFHFDYWGQGTQVTVSS
polyreactivity (PSR sort gate): low polyreactivity
